Measurements from PMC3812353.
Residue numbers refer to the chain shown, from its start.

Legend:
[1] = biological target: T1, MutS-IAANS (MutS-C42A/M88C) (Thermus aquaticus (printed as T. …, UniProt Q56215 1-811, C42A;M88C)); assay: IAANS fluorescence quenching, equilibrium
T1 sequence: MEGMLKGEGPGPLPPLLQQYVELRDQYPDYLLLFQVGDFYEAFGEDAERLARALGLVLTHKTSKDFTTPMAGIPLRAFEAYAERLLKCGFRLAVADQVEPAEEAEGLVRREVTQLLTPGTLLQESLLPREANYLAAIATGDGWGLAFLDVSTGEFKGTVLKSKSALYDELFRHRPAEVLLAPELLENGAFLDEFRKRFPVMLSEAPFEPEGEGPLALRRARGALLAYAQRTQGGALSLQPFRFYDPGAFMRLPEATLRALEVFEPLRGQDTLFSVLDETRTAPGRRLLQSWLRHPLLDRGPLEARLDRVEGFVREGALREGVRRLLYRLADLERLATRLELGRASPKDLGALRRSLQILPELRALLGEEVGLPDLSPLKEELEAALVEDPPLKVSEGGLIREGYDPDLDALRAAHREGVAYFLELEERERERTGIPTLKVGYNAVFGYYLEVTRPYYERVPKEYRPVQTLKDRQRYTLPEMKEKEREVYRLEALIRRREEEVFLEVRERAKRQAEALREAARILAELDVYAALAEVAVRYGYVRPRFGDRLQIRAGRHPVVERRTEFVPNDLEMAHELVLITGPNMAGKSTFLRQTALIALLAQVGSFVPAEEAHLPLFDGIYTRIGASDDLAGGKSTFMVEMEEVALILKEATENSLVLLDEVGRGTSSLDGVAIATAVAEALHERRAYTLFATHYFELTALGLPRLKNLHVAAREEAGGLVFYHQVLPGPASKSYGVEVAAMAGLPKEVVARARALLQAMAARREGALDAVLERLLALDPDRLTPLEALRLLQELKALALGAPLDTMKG

[2] = biological target: T1, MutS-IAANS (MutS-C42A/M88C); assay: stopped-flow IAANS fluorescence
MutS-F39A-IAANS = biological target: T2, MutS-F39A-IAANS (Thermus aquaticus (printed as T. …, UniProt Q56215 1-811, F39A;C42A;M88C)); assay: IAANS fluorescence quenching, equilibrium and stopped-flow
T2 sequence: T1 sequence with F39A

MutS-F39A = biological target: T3, MutS-F39A (Thermus aquaticus (printed as T. …, UniProt Q56215 1-811, F39A)); assay: fluorescence anisotropy, equilibrium
T3 sequence: T1 sequence with F39A, A42C, C88M

MutS (wild type) [3] = biological target: T4, MutS (wild type) (Thermus aquaticus (printed as T. …, UniProt Q56215 1-811)); assay: fluorescence anisotropy, equilibrium
T4 sequence: T1 sequence with A42C, C88M

MutS (wild type) [4] = biological target: T4, MutS (wild type); assay: stopped-flow fluorescence anisotropy

B1: DNA(+T) (dsDNA)
DNA 1: ATGTGAATCAGTATGGTATATATCTGCTGAAGGAAAT
DNA 2: ATTTCCTTCAGCAGATATTACCATACTGATTCACAT
[1]
  Kd: 22 ± 4 nM
[2]
  apparent K (half saturation): 2300 ± 700 nM
MutS-F39A-IAANS
  binding result: no binding

B2: DNA(+T)TAMRA (dsDNA)
DNA 1: B1 DNA 1
DNA 2: B1 DNA 2
modifications: 3' amino linker
MutS-F39A
  binding result: no binding
MutS (wild type) [3]
  Kd: 13 ± 2 nM
MutS (wild type) [4]
  apparent K (half saturation): 5 ± 2 µM
